# Data: patent US20220378923A1, “BET DEGRADER” (KYOWA KIRIN CO., LTD., priority 2019, published 2022)
# Assays:
# [1] = target: DCAF16 with HaloTag added to the C-terminal (expressed from plasmid pFC27K_DCAF16) (human) (UniProt Q9NXF7); assay: NanoBRET in HEK293 cells, Nluc-BRD2 and DCAF16-HaloTag with 618 Ligand, MLN4924; 1.0 umol/L compound 1h
# [2] = target: DCAF16 with HaloTag added to the C-terminal (expressed from plasmid pFC27K_DCAF16) (human) (UniProt Q9NXF7); assay: NanoBRET in HEK293 cells, Nluc-BRD2 and DCAF16-HaloTag with 618 Ligand, MLN4924; 1.0 umol/L compound 1l
# [3] = target: DCAF16 with HaloTag added to the C-terminal (expressed from plasmid pFC27K_DCAF16) (human) (UniProt Q9NXF7); assay: NanoBRET in HEK293 cells, Nluc-BRD2 and DCAF16-HaloTag with 618 Ligand, MLN4924; 1.0 umol/L compound 3a
# [4] = target: DCAF16 with HaloTag added to the C-terminal (expressed from plasmid pFC27K_DCAF16) (human) (UniProt Q9NXF7); assay: NanoBRET in HEK293 cells, Nluc-BRD2 and DCAF16-HaloTag with 618 Ligand, MLN4924; 1.0 umol/L compound 3b
# [5] = target: DCAF16 with HaloTag added to the C-terminal (expressed from plasmid pFC27K_DCAF16) (human) (UniProt Q9NXF7); assay: NanoBRET in HEK293 cells, Nluc-BRD2 and DCAF16-HaloTag with 618 Ligand, MLN4924; 1.0 umol/L compound 3e
# [6] = target: DCAF16 with HaloTag added to the C-terminal (expressed from plasmid pFC27K_DCAF16) (human) (UniProt Q9NXF7); assay: NanoBRET in HEK293 cells, Nluc-BRD2 and DCAF16-HaloTag with 618 Ligand, MLN4924; 1.0 umol/L compound 6k
# [7] = target: DCAF16 with HaloTag added to the C-terminal (expressed from plasmid pFC27K_DCAF16) (human) (UniProt Q9NXF7); assay: NanoBRET in HEK293 cells, Nluc-BRD2 and DCAF16-HaloTag with 618 Ligand, MLN4924; 1.0 umol/L compound 7o
# [8] = target: DCAF16 with HaloTag added to the C-terminal (expressed from plasmid pFC27K_DCAF16) (human) (UniProt Q9NXF7); assay: NanoBRET in HEK293 cells, Nluc-BRD2 and DCAF16-HaloTag with 618 Ligand, MLN4924; 1.0 umol/L compound 7p
# [9] = target: DCAF16 with HaloTag added to the C-terminal (expressed from plasmid pFC27K_DCAF16) (human) (UniProt Q9NXF7); assay: NanoBRET in HEK293 cells, Nluc-BRD2 and DCAF16-HaloTag with 618 Ligand, MLN4924; 1.0 umol/L compound 8a
# [10] = target: DCAF16 with HaloTag added to the C-terminal (expressed from plasmid pFC27K_DCAF16) (human) (UniProt Q9NXF7); assay: NanoBRET in HEK293 cells, Nluc-BRD2 and DCAF16-HaloTag with 618 Ligand, MLN4924; 1.0 umol/L compound 8j
# [11] = target: DCAF16 with HaloTag added to the C-terminal (expressed from plasmid pFC27K_DCAF16) (human) (UniProt Q9NXF7); assay: NanoBRET in HEK293 cells, Nluc-BRD2 and DCAF16-HaloTag with 618 Ligand, MLN4924; 1.0 umol/L compound 12c
# [12] = target: DCAF16 with HaloTag added to the C-terminal (expressed from plasmid pFC27K_DCAF16) (human) (UniProt Q9NXF7); assay: NanoBRET in HEK293 cells, Nluc-BRD2 and DCAF16-HaloTag with 618 Ligand, MLN4924; 1.0 umol/L compound 15a
# [13] = target: DCAF16 with HaloTag added to the C-terminal (expressed from plasmid pFC27K_DCAF16) (human) (UniProt Q9NXF7); assay: NanoBRET in HEK293 cells, Nluc-BRD2 and DCAF16-HaloTag with 618 Ligand, MLN4924; 1.0 umol/L compound 15f
# [14] = target: DCAF16 with HaloTag added to the C-terminal (expressed from plasmid pFC27K_DCAF16) (human) (UniProt Q9NXF7); assay: NanoBRET in HEK293 cells, Nluc-BRD2 and DCAF16-HaloTag with 618 Ligand, MLN4924; DMSO control without test compound
# [15] = target: DCAF16 with HaloTag added to the C-terminal (expressed from plasmid pFC27K_DCAF16) (human) (UniProt Q9NXF7); assay: NanoBRET in HEK293 cells, Nluc-BRD2 and DCAF16-HaloTag with 618 Ligand, bortezomib; 10 umol/L compound 1h; mean of n=3
# [16] = target: DCAF16 with HaloTag added to the C-terminal (expressed from plasmid pFC27K_DCAF16) (human) (UniProt Q9NXF7); assay: NanoBRET in HEK293 cells, Nluc-BRD2 and DCAF16-HaloTag with 618 Ligand, bortezomib; 10 umol/L compound 1l; mean of n=3
# [17] = target: DCAF16 with HaloTag added to the C-terminal (expressed from plasmid pFC27K_DCAF16) (human) (UniProt Q9NXF7); assay: NanoBRET in HEK293 cells, Nluc-BRD2 and DCAF16-HaloTag with 618 Ligand, bortezomib; 10 umol/L compound 3a; mean of n=3
# [18] = target: DCAF16 with HaloTag added to the C-terminal (expressed from plasmid pFC27K_DCAF16) (human) (UniProt Q9NXF7); assay: NanoBRET in HEK293 cells, Nluc-BRD2 and DCAF16-HaloTag with 618 Ligand, bortezomib; 10 umol/L compound 3b; mean of n=3
# [19] = target: DCAF16 with HaloTag added to the C-terminal (expressed from plasmid pFC27K_DCAF16) (human) (UniProt Q9NXF7); assay: NanoBRET in HEK293 cells, Nluc-BRD2 and DCAF16-HaloTag with 618 Ligand, bortezomib; 10 umol/L compound 3e; mean of n=3
# [20] = target: DCAF16 with HaloTag added to the C-terminal (expressed from plasmid pFC27K_DCAF16) (human) (UniProt Q9NXF7); assay: NanoBRET in HEK293 cells, Nluc-BRD2 and DCAF16-HaloTag with 618 Ligand, bortezomib; 10 umol/L compound 6k; mean of n=3
# [21] = target: DCAF16 with HaloTag added to the C-terminal (expressed from plasmid pFC27K_DCAF16) (human) (UniProt Q9NXF7); assay: NanoBRET in HEK293 cells, Nluc-BRD2 and DCAF16-HaloTag with 618 Ligand, bortezomib; 10 umol/L compound 7o; mean of n=3
# [22] = target: DCAF16 with HaloTag added to the C-terminal (expressed from plasmid pFC27K_DCAF16) (human) (UniProt Q9NXF7); assay: NanoBRET in HEK293 cells, Nluc-BRD2 and DCAF16-HaloTag with 618 Ligand, bortezomib; 10 umol/L compound 7p; mean of n=3
# [23] = target: DCAF16 with HaloTag added to the C-terminal (expressed from plasmid pFC27K_DCAF16) (human) (UniProt Q9NXF7); assay: NanoBRET in HEK293 cells, Nluc-BRD2 and DCAF16-HaloTag with 618 Ligand, bortezomib; 10 umol/L compound 8a; mean of n=3
# [24] = target: DCAF16 with HaloTag added to the C-terminal (expressed from plasmid pFC27K_DCAF16) (human) (UniProt Q9NXF7); assay: NanoBRET in HEK293 cells, Nluc-BRD2 and DCAF16-HaloTag with 618 Ligand, bortezomib; 10 umol/L compound 8j; mean of n=3
# [25] = target: DCAF16 with HaloTag added to the C-terminal (expressed from plasmid pFC27K_DCAF16) (human) (UniProt Q9NXF7); assay: NanoBRET in HEK293 cells, Nluc-BRD2 and DCAF16-HaloTag with 618 Ligand, bortezomib; 10 umol/L compound 12c; mean of n=3
# [26] = target: DCAF16 with HaloTag added to the C-terminal (expressed from plasmid pFC27K_DCAF16) (human) (UniProt Q9NXF7); assay: NanoBRET in HEK293 cells, Nluc-BRD2 and DCAF16-HaloTag with 618 Ligand, bortezomib; 10 umol/L compound 15a; mean of n=3
# [27] = target: DCAF16 with HaloTag added to the C-terminal (expressed from plasmid pFC27K_DCAF16) (human) (UniProt Q9NXF7); assay: NanoBRET in HEK293 cells, Nluc-BRD2 and DCAF16-HaloTag with 618 Ligand, bortezomib; 10 umol/L compound 15f; mean of n=3
# [28] = target: DCAF16 with HaloTag added to the C-terminal (expressed from plasmid pFC27K_DCAF16) (human) (UniProt Q9NXF7); assay: NanoBRET in HEK293 cells, Nluc-BRD2 and DCAF16-HaloTag with 618 Ligand, bortezomib; DMSO control without test compound; mean of n=3
# [29] = target: DCAF16 with HaloTag added to the C-terminal (expressed from plasmid pFC27K_DCAF16) (human) (UniProt Q9NXF7); assay: NanoBRET in HEK293 cells, Nluc-BRD2 and DCAF16-HaloTag with 618 Ligand, MLN4924; 1.0 umol/L comparative compound 1 (compound P3, known bivalent BET inhibitor)
# Chain of DCAF16 with HaloTag added to the C-terminal (expressed from plasmid pFC27K_DCAF16) (human) (Q9NXF7 whole entry): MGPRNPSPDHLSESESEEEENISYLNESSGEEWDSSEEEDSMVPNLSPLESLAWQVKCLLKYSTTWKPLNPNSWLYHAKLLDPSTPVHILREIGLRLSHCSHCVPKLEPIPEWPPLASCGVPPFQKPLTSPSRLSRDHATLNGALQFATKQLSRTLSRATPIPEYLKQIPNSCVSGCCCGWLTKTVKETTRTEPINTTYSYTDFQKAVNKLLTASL
substance,measurement,setting,value
BRD2 with an Nluc tag added to the N-terminal (expressed from plasmid pFN31A_BRD2) (from UniProt P25440 1-801),BRET Ratio,[1],10.9
same,BRET Ratio,[2],14.9
same,BRET Ratio,[3],14.5
same,BRET Ratio,[4],9.69
same,BRET Ratio,[5],9.58
same,BRET Ratio,[6],12.6
same,BRET Ratio,[7],13
same,BRET Ratio,[8],11.6
same,BRET Ratio,[9],12.4
same,BRET Ratio,[10],11.9
same,BRET Ratio,[11],13.2
same,BRET Ratio,[12],9.59
same,BRET Ratio,[13],12.4
same,BRET Ratio,[14],0.99
same,BRET Ratio,[15],6.84
same,BRET Ratio,[16],8.03
same,BRET Ratio,[17],8.51
same,BRET Ratio,[18],6.06
same,BRET Ratio,[19],5.96
same,BRET Ratio,[20],7.07
same,BRET Ratio,[21],6.69
same,BRET Ratio,[22],6.8
same,BRET Ratio,[23],7.27
same,BRET Ratio,[24],7.07
same,BRET Ratio,[25],7.6
same,BRET Ratio,[26],5.88
same,BRET Ratio,[27],5.99
same,BRET Ratio,[28],1.51
same,BRET Ratio,[29],1.93
